B1: Mitogen-activated protein kinase ERK-A (Drosophila melanogaster (Fruit fly)), P40417 (parent)
chain: MEEFNSSGSVVNGTGSTEVPQSNAEVIRGQIFEVGPRYIKLAYIGEGAYGMVVSADDTLTNQRVAIKKISPFEHQTYCQRTLREITILTRFKHENIIDIRDILRVDSIDQMRDVYIVQCLMETDLYKLLKTQRLSNDHICYFLYQILRGLKYIHSANVLHRDLKPSNLLLNKTCDLKICDFGLARIADPEHDHTGFLTEYVATRWYRAPEIMLNSKGYTKSIDIWSVGCILAEMLSNRPIFPGKHYLDQLNHILGVLGSPSRDDLECIINEKARNYLESLPFKPNVPWAKLFPNADALALDLLGKMLTFNPHKRIPVEEALAHPYLEQYYDPGDEPVAEVPFRINMENDDISRDALKSLIFEETLKFKERQPDNAP

How the values were obtained:
Conditions in all cases: with arrb2_human ARRB2, P32121
[1] = variants of: B1
[2] = variants of: B1; remark: listed apart in the source
[3] = variants of: B1; remark: listed apart in the source

## MEEFNSSGSVVNGTGSTEVPQSNAEVIRGQIFEVGPRYIKLAYIGEGAYGMVVSADDTLTNQRVAIKKISPFEHQTYCQRTLREITILTRFKHENIIDIRDILRVDSIDQMRDVYIVQCLMETDLYKLLKTQRLSNDHICYFLYQILRGLKYIHSANVLHRDLKPSNLLLNKTCDLKICDFGLARIADPEHDHTGFLTEEVATRWYRAPEIMLNSKGYTKSIDIWSVGCILAEMLSNRPIFPGKHYLDQLNHILGVLGSPSRDDLECIINEKARNYLESLPFKPNVPWAKLFPNADALALDLLGKMLTFNPHKRIPVEEALAHPYLEQYYDPGDEPVAEVPFRINMENDDISRDALKSLIFEETLKFKERQPDNAP [Y200E]
[1]
  effect of a mutation on the interaction: disrupting interaction
[2]
  effect of a mutation on the interaction: decreasing interaction

## MEEFNSSGSVVNGTGSTEVPQSNAEVIRGQIFEVGPRYIKLAYIGEGAYGMVVSADDTLTNQRVAIKKISPFEHQTYCQRTLREITILTRFKHENIIDIRDILRVDSIDQMRDVYIVQCLMETDLYKLLKTQRLSNDHICYFLYQILRGLKYIHSANVLHRDLKPSNLLLNKTCDLKICDFGLARIADPEHDHTGFLEEYVATRWYRAPEIMLNSKGYTKSIDIWSVGCILAEMLSNRPIFPGKHYLDQLNHILGVLGSPSRDDLECIINEKARNYLESLPFKPNVPWAKLFPNADALALDLLGKMLTFNPHKRIPVEEALAHPYLEQYYDPGDEPVAEVPFRINMENDDISRDALKSLIFEETLKFKERQPDNAP [T198E]
[1]
  effect of a mutation on the interaction: disrupting interaction
[3]
  effect of a mutation on the interaction: disrupting interaction strength
